Source: FireProtDB (doi:10.1093/protein/12.10.841)
“And” between values parts separate entries of the source, which are not always exact repeats. Equal values may be shown once.

B1: Lysozyme C, P61626 (parent)
chain: MKALIVLGLVLLSVTVQGKVFERCELARTLKRLGMDGYRGISLANWMCLAKWESGYNTRATNYNAGDRSTDYGIFQINSRYWCNDGKTPGAVNACHLSCSALLQDNIADAVACAKRVVRDPQGIRAWVAWRNRCQNRDVRQYVQGCGV

Variants of: B1
Conditions: Homo sapiens; pH 2.51; Thermal; DSC; glycine 0.05 M; reversible: yes; structure 1LZ1; whole UniProt chain shown

Variant | Tm [°C] | heat capacity change of unfolding [kcal/mol/K] | unfolding enthalpy (calorimetric) [kcal/mol] | unfolding enthalpy (van 't Hoff) [kcal/mol]
MKALIVLGLVLLSVTVQGKVFERCELARTLKRLGMDGYRGISLANWMCLAKWESGYNTRATNYNAGDRSTDYGIFQSNSRYWCNDGKTPGAVNACHLSCSALLQDNIADAVACAKRVVRDPQGIRAWVAWRNRCQNRDVRQYVQGCGV | 50.2 | 1.27 | 87 | 92.7

Same assay, conditions: Homo sapiens; pH 2.7; 64.9 °C; Thermal; DSC; glycine 0.05 M; reversible: yes; structure 1LZ1; whole UniProt chain shown

Variant | ddG of mutation (higher = less stable) [kcal/mol]
MKALIVLGLVLLSVTVQGKVFERCELARTLKRLGMDGYRGISLANWMCLAKWESGYNTRATNYNAGDRSTDYGIFQSNSRYWCNDGKTPGAVNACHLSCSALLQDNIADAVACAKRVVRDPQGIRAWVAWRNRCQNRDVRQYVQGCGV | 3.59
MKALIVLGLVLLSVTVQGKVFERCELARTLKRLGMDGYRGISLANWMCLAKWESGYNTRATNYNAGDRSTDYGMFQINSRYWCNDGKTPGAVNACHLSCSALLQDNIADAVACAKRVVRDPQGIRAWVAWRNRCQNRDVRQYVQGCGV | 1.77
MKALIVLGLVLLSVTVQGKVFERCELARTLKRLGMDGYRGISLANWMCLAKWESGYNTRATNYNAGDRSTDYGLFQINSRYWCNDGKTPGAVNACHLSCSALLQDNIADAVACAKRVVRDPQGIRAWVAWRNRCQNRDVRQYVQGCGV | 0.1

Same assay, conditions: Homo sapiens; pH 2.7; Thermal; DSC; glycine 0.05 M; reversible: yes; structure 1LZ1; whole UniProt chain shown

Variant | change of melting temperature, mutant - wild type (higher = more stable) [°C] | heat capacity change of unfolding | unfolding enthalpy (calorimetric) | unfolding enthalpy (van 't Hoff) | Tm
MKALIVLGLVLLSVTVQGKVFERCELARTLKRLGMDGYRGISLANWMCLAKWESGYNTRATNYNAGDRSTDYGIFQSNSRYWCNDGKTPGAVNACHLSCSALLQDNIADAVACAKRVVRDPQGIRAWVAWRNRCQNRDVRQYVQGCGV | -11.8 | 1.2 kcal/mol/K and 1.34 kcal/mol/K | 90.8 kcal/mol and 107 kcal/mol | 96.8 kcal/mol and 114 kcal/mol | 
MKALIVLGLVLLSVTVQGKVFERCELARTLKRLGMDGYRGISLANWMCLAKWESGYNTRATNYNAGDRSTDYGMFQINSRYWCNDGKTPGAVNACHLSCSALLQDNIADAVACAKRVVRDPQGIRAWVAWRNRCQNRDVRQYVQGCGV | -5.8 | 1.63 kcal/mol/K and 1.53 kcal/mol/K | 97.3 kcal/mol and 106 kcal/mol | 107 kcal/mol and 115 kcal/mol | 
MKALIVLGLVLLSVTVQGKVFERCELARTLKRLGMDGYRGISLANWMCLAKWESGYNTRATNYNAGDRSTDYGLFQINSRYWCNDGKTPGAVNACHLSCSALLQDNIADAVACAKRVVRDPQGIRAWVAWRNRCQNRDVRQYVQGCGV | -0.3 | 1.41 kcal/mol/K | 107 kcal/mol | 119 kcal/mol | 64.6 °C and 64.9 °C

Same assay, conditions: Homo sapiens; pH 2.84; Thermal; DSC; glycine 0.05 M; reversible: yes; structure 1LZ1; whole UniProt chain shown

Variant | Tm [°C] | heat capacity change of unfolding [kcal/mol/K] | unfolding enthalpy (calorimetric) [kcal/mol] | unfolding enthalpy (van 't Hoff) [kcal/mol]
MKALIVLGLVLLSVTVQGKVFERCELARTLKRLGMDGYRGISLANWMCLAKWESGYNTRATNYNAGDRSTDYGIFQSNSRYWCNDGKTPGAVNACHLSCSALLQDNIADAVACAKRVVRDPQGIRAWVAWRNRCQNRDVRQYVQGCGV | 55.3 | 1.55 | 94.7 | 99.9

Same assay, conditions: Homo sapiens; pH 3.04; Thermal; DSC; glycine 0.05 M; reversible: yes; structure 1LZ1; whole UniProt chain shown

Variant | Tm [°C] | heat capacity change of unfolding [kcal/mol/K] | unfolding enthalpy (calorimetric) [kcal/mol] | unfolding enthalpy (van 't Hoff) [kcal/mol]
MKALIVLGLVLLSVTVQGKVFERCELARTLKRLGMDGYRGISLANWMCLAKWESGYNTRATNYNAGDRSTDYGIFQSNSRYWCNDGKTPGAVNACHLSCSALLQDNIADAVACAKRVVRDPQGIRAWVAWRNRCQNRDVRQYVQGCGV | 58.2 | 1.48 | 98.2 | 104

Same assay, conditions: Homo sapiens; pH 3.17; Thermal; DSC; glycine 0.05 M; reversible: yes; structure 1LZ1; whole UniProt chain shown

Variant | Tm [°C] | heat capacity change of unfolding [kcal/mol/K] | unfolding enthalpy (calorimetric) [kcal/mol] | unfolding enthalpy (van 't Hoff) [kcal/mol]
MKALIVLGLVLLSVTVQGKVFERCELARTLKRLGMDGYRGISLANWMCLAKWESGYNTRATNYNAGDRSTDYGIFQSNSRYWCNDGKTPGAVNACHLSCSALLQDNIADAVACAKRVVRDPQGIRAWVAWRNRCQNRDVRQYVQGCGV | 60 | 1.24 | 99.9 | 106

Same assay, conditions: Homo sapiens; pH 2.54; Thermal; DSC; glycine 0.05 M; reversible: yes; structure 1LZ1; whole UniProt chain shown

Variant | Tm [°C] | heat capacity change of unfolding [kcal/mol/K] | unfolding enthalpy (calorimetric) [kcal/mol] | unfolding enthalpy (van 't Hoff) [kcal/mol]
MKALIVLGLVLLSVTVQGKVFERCELARTLKRLGMDGYRGISLANWMCLAKWESGYNTRATNYNAGDRSTDYGMFQINSRYWCNDGKTPGAVNACHLSCSALLQDNIADAVACAKRVVRDPQGIRAWVAWRNRCQNRDVRQYVQGCGV | 56.3 | 1.39 | 92.5 | 103

Same assay, conditions: Homo sapiens; pH 2.83; Thermal; DSC; glycine 0.05 M; reversible: yes; structure 1LZ1; whole UniProt chain shown

Variant | Tm [°C] | heat capacity change of unfolding [kcal/mol/K] | unfolding enthalpy (calorimetric) [kcal/mol] | unfolding enthalpy (van 't Hoff) [kcal/mol]
MKALIVLGLVLLSVTVQGKVFERCELARTLKRLGMDGYRGISLANWMCLAKWESGYNTRATNYNAGDRSTDYGMFQINSRYWCNDGKTPGAVNACHLSCSALLQDNIADAVACAKRVVRDPQGIRAWVAWRNRCQNRDVRQYVQGCGV | 61.3 | 1.72 | 101 | 110

Same assay, conditions: Homo sapiens; pH 3.02; Thermal; DSC; glycine 0.05 M; reversible: yes; structure 1LZ1; whole UniProt chain shown

Variant | Tm [°C] | heat capacity change of unfolding [kcal/mol/K] | unfolding enthalpy (calorimetric) [kcal/mol] | unfolding enthalpy (van 't Hoff) [kcal/mol]
MKALIVLGLVLLSVTVQGKVFERCELARTLKRLGMDGYRGISLANWMCLAKWESGYNTRATNYNAGDRSTDYGMFQINSRYWCNDGKTPGAVNACHLSCSALLQDNIADAVACAKRVVRDPQGIRAWVAWRNRCQNRDVRQYVQGCGV | 64.2 | 1.43 | 105 | 113

Same assay, conditions: Homo sapiens; pH 3.11; Thermal; DSC; glycine 0.05 M; reversible: yes; structure 1LZ1; whole UniProt chain shown

Variant | Tm [°C] | heat capacity change of unfolding [kcal/mol/K] | unfolding enthalpy (calorimetric) [kcal/mol] | unfolding enthalpy (van 't Hoff) [kcal/mol]
MKALIVLGLVLLSVTVQGKVFERCELARTLKRLGMDGYRGISLANWMCLAKWESGYNTRATNYNAGDRSTDYGMFQINSRYWCNDGKTPGAVNACHLSCSALLQDNIADAVACAKRVVRDPQGIRAWVAWRNRCQNRDVRQYVQGCGV | 65.9 | 1.53 | 107 | 116

Same assay, conditions: Homo sapiens; pH 2.48; Thermal; DSC; glycine 0.05 M; reversible: yes; structure 1LZ1; whole UniProt chain shown

Variant | Tm [°C] | heat capacity change of unfolding [kcal/mol/K] | unfolding enthalpy (calorimetric) [kcal/mol] | unfolding enthalpy (van 't Hoff) [kcal/mol]
MKALIVLGLVLLSVTVQGKVFERCELARTLKRLGMDGYRGISLANWMCLAKWESGYNTRATNYNAGDRSTDYGLFQINSRYWCNDGKTPGAVNACHLSCSALLQDNIADAVACAKRVVRDPQGIRAWVAWRNRCQNRDVRQYVQGCGV | 61.2 | 1.41 | 103 | 113

Same assay, conditions: Homo sapiens; pH 2.65; Thermal; DSC; glycine 0.05 M; reversible: yes; structure 1LZ1; whole UniProt chain shown

Variant | Tm [°C] | heat capacity change of unfolding [kcal/mol/K] | unfolding enthalpy (calorimetric) [kcal/mol] | unfolding enthalpy (van 't Hoff) [kcal/mol]
MKALIVLGLVLLSVTVQGKVFERCELARTLKRLGMDGYRGISLANWMCLAKWESGYNTRATNYNAGDRSTDYGLFQINSRYWCNDGKTPGAVNACHLSCSALLQDNIADAVACAKRVVRDPQGIRAWVAWRNRCQNRDVRQYVQGCGV | 64 | 1.55 | 105 | 119

Same assay, conditions: Homo sapiens; pH 2.96; Thermal; DSC; glycine 0.05 M; reversible: yes; structure 1LZ1; whole UniProt chain shown

Variant | Tm [°C] | heat capacity change of unfolding [kcal/mol/K] | unfolding enthalpy (calorimetric) [kcal/mol] | unfolding enthalpy (van 't Hoff) [kcal/mol]
MKALIVLGLVLLSVTVQGKVFERCELARTLKRLGMDGYRGISLANWMCLAKWESGYNTRATNYNAGDRSTDYGLFQINSRYWCNDGKTPGAVNACHLSCSALLQDNIADAVACAKRVVRDPQGIRAWVAWRNRCQNRDVRQYVQGCGV | 68.7 | 1.27 | 112 | 125
